Consider one substance from patent publication US20210355180A1.

The target of experiment [1] is N-terminally biotinylated human Aβ1-40 peptide (human). As to the kind of experiment: SPR (Biacore 2000), periplasm diluted 15x over hAβ1-40 surface (blank control).
For experiment [2] the target is unchanged. As to the kind of experiment: ELISA, ABD periplasm captured on anti-ABD, 2 nM biotinylated hAβ1-40.

N-terminally biotinylated human Aβ1-40 peptide (human), sequence (peptide, as listed by the source): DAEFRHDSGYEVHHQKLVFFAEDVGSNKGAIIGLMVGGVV

For the substance “ABD (albumin binding domain GA3 from streptococcal Protein G), periplasm control (from UniProt P19909 254-299)”, the Response RU in experiment [1] was found to be 2 RU. In experiment [2], this substance yielded an ELISA response (absorbance 450 nm) of 0.063 AU.
